The results in this text go back to PMC6270119, “Application of Reductive ^13C-Methylation of Lysines to Enhance the Sensitivity of Conventional NMR Methods” (Molecules, 2013).

A short description of data set [1]: Dynamic light scattering particle size analysis. The note with it: DLS, 0.25 mM (250 μM) FM-HVR in PBS, room temperature. Type of data set: physicochemical. From the text: This roughly corresponds to the monomeric form of peptide. However, upon introduction of farnesylation and methylation the hydrodynamic radius of the peptide increased to 8.15 ± 0.46 nm at a four times lower concentration as shown in Figure 2B. This hydrodynamic radius corresponded to a particle of 471.92 ± 63.75 kDa in size. Observation of higher order assemblies of FM-HVR allowed us to conclude that post-translational modifications in K-Ras can lead to aggregation through hydrophobic interactions.
For studying aggregation of peptides, dynamic light scattering experiments were performed on a DynaPro-801 molecular sizing instrument (Wyatt Technology Europe, Dernbach, Germany). The peptide samples were dialyzed against PBS. The sample volume of 250 μL was used for the experiments. […] Samples were centrifuged at 12000 rpm for 10 min before experiments. Analysis of the data was carried out using Dynamics software.

The target in data set [2] is reductively methylated calmodulin (UniProt P0DP23). As to the kind of experiment: NMR titration; 1H-13C HSQC of 1 µM reductively methylated CaM with 0, 0.5, 1 and 1.5 µM FM-HVR (peptide not aggregated); 25 °C; 50 mM Tris-citrate pH 6.5, 50 mM NaCl, 5 mM MgCl2, 10 mM β-mercaptoethanol, 10 mM CaCl2.
The target is the same in data set [3]. As to the kind of experiment: NMR titration; 1H-13C HSQC of 70 µM reductively methylated CaM with FM-HVR at 0:1, 1:1, 2:1 and 3:1 molar ratios (aggregated FM-HVR); 25 °C; 50 mM Tris-citrate pH 6.5, 50 mM NaCl, 5 mM MgCl2, 10 mM β-mercaptoethanol, 10 mM CaCl2.
The target in data set [4] is fully post-translationally modified (farnesylated and methylated) hypervariable region peptide of K-Ras4B (human). As to the kind of experiment: pyrene fluorescence (critical aggregation concentration); peptide at different concentrations with 2 µM pyrene in PBS; excitation scans 315-360 nm, emission 393 nm; ratio I334/I337 against the logarithm of the peptide concentration.

For `COC(=O)[C@H](CSC/C=C(\C)CC/C=C(\C)CCC=C(C)C)NC(=O)C1CCC(CN2C(=O)CC(SC[C@H](NC(=O)[C@H](CCCCN)NC(=O)[C@H](CO)NC(=O)[C@H](CCCCN)NC(=O)[C@H](CCCCN)NC(=O)[C@H](CCCCN)NC(=O)[C@H](CCCCN)NC(=O)[C@H](CCCCN)NC(=O)[C@H](CCCCN)NC(=O)CNC(=O)[C@H](CC(=O)O)NC(=O)[C@H](CCCCN)NC(=O)[C@H](CO)NC(=O)[C@H](CCSC)NC(=O)[C@H](CCCCN)NC(=O)[C@H](CCC(=O)O)NC(=O)[C@@H](N)CCCCN)C(=O)O)C2=O)CC1` (some centres unmarked) [FM-HVR], in data set [1], the hydrodynamic radius was 8.15 ± 0.46 nm and the “particle mass corresponding to hydrodynamic radius” value worked out at 471.92 ± 63.75 kDa.

On to “fully post-translationally modified (farnesylated and methylated) hypervariable region peptide of K-Ras4B”, for which the values for the FM-HVR to CaM titration ratio at saturation (FM-HVR per CaM) in data set [2] and in data set [3] were 1 and 2, respectively. In data set [4], the critical aggregation concentration is > 10 µM.
